This is an account of results in the supplement of paper PMC6757056.

± gives the standard deviation of the averaged measurements.

To fix the notation:
B1: library; a variant is named by its letters at N, in order (parent)
chain: GCUGUCACCGGUGUAUUACCCUAGUGGUCGACCGGUCUGAUGAGUCUNNNNNNAGACGAAACAGC

Variants of B1 are the subject of series [1]. Description: normalized RNA/DNA level with ligand (relative to sTRSVctl = 100) (log10 (% of sTRSVctl)); ligand: hypoxanthine (xanthine aptamer); higher = less ribozyme self-cleavage, higher mRNA level. The conditions noted are these: ligand concentration (+) RNA-Seq: 5 mM, HEK293T, reporter: mCherry (pCS4076), ligand present: yes. The method in brief:
(§1)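 RNA level was computed as RNA reads over DNA reads divided by a spiked-in non-cleaving sequence or by the top sequences, then scaled and log-transformed. Scaling was ×100 with log10, the top group was 25 sequences, and the threshold was ≥100 DNA reads. The reads came from HEK293T cells transfected at 4 µg per 6-well well with ribozyme switch library plasmids (mCherry, or eGFP in some ligand experiments). Total RNA was extracted with EDTA 72 h after transfection, with any ligand added 1 h before it.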

Variants of B1 are the subject of series [2]. Description: normalized RNA/DNA level without ligand (relative to sTRSVctl = 100) (log10 (% of sTRSVctl)); ligand: hypoxanthine (xanthine aptamer); higher = less ribozyme self-cleavage, higher mRNA level. The conditions noted are these: HEK293T, reporter: mCherry (pCS4076), ligand present: no. Summed up: as §1

Consider AGCGGC, for which, in series [1], the “normalized RNA/DNA level with ligand (log10)” value amounted to 1.959 ± 0.012. The “normalized RNA/DNA level without ligand (log10)” value in series [2] stood at 1.86 ± 0.042.
For AGCUCU, in that order: 1.96 ± 0.033 and 1.89 ± 0.04.
The like results for AGCUCC were, in that order, 1.97 ± 0.14 and 1.95 ± 0.034.
For AGCUCA, in that order: 1.998 ± 0.00082 and 1.895 ± 0.011.
With UGCCUU, the “normalized RNA/DNA level with ligand (log10)” value in series [1] was 1.939 ± 0.0041. For the same variant, the “normalized RNA/DNA level without ligand (log10)” value in series [2] came out at 1.9 ± 0.093.
For AGGACA, in that order: 1.89 ± 0.066 and 1.71 ± 0.042.
For UGCAAC, in that order: 1.963 ± 0.0065 and 1.83 ± 0.022.
As for UGCAAU, the “normalized RNA/DNA level with ligand (log10)” value in series [1] is 1.9506 ± 0.00045. Also, the “normalized RNA/DNA level without ligand (log10)” value in series [2] is 1.807 ± 0.01.
The like results for AGGAUC were, in that order, 1.99 ± 0.046 and 1.944 ± 0.013.
As for AGGAUU, the “normalized RNA/DNA level with ligand (log10)” value in series [1] amounted to 1.934 ± 0.0076. In series [2], the “normalized RNA/DNA level without ligand (log10)” value is 1.83 ± 0.075.
The like results for CGCUAA were, in that order, 1.91 ± 0.061 and 1.71 ± 0.028.
For CGCUAC, in that order: 1.86 ± 0.041 and 1.74 ± 0.074.
For CGCUAU, in that order: 1.91 ± 0.092 and 1.78 ± 0.028.
In the case of GGCGGC, the “normalized RNA/DNA level with ligand (log10)” value in series [1] stood at 1.885 ± 0.015. Besides, the “normalized RNA/DNA level without ligand (log10)” value in series [2] was determined as 1.525 ± 0.0082.
The like results for GGCGGG were, in that order, 1.93 ± 0.034 and 1.83 ± 0.061.
The like results for GGCGGU were, in that order, 1.957 ± 0.014 and 1.949 ± 0.017.
The like results for GGGAAC were, in that order, 1.964 ± 0.016 and 1.724 ± 0.01.
On to CGCGGA, for which the “normalized RNA/DNA level with ligand (log10)” value in series [1] was 2 ± 0.046. Further, the “normalized RNA/DNA level without ligand (log10)” value in series [2] was determined as 1.863 ± 0.0046.
Take CGCGGC: the “normalized RNA/DNA level with ligand (log10)” value in series [1] is 1.99 ± 0.042. For the same variant, the “normalized RNA/DNA level without ligand (log10)” value in series [2] was determined as 1.92 ± 0.034.
As to CGCGGU, in series [1], the “normalized RNA/DNA level with ligand (log10)” value came out at 1.96 ± 0.025. Besides, the “normalized RNA/DNA level without ligand (log10)” value in series [2] was 1.87 ± 0.026.
Regarding CGGAGC, the “normalized RNA/DNA level with ligand (log10)” value in series [1] amounted to 1.944 ± 0.019. Also, the “normalized RNA/DNA level without ligand (log10)” value in series [2] worked out at 1.67 ± 0.046.
Consider CGGAGA, for which the “normalized RNA/DNA level with ligand (log10)” value in series [1] came to 1.93 ± 0.044. Moreover, the “normalized RNA/DNA level without ligand (log10)” value in series [2] stood at 1.617 ± 0.012.
Consider UGCUUA, for which the “normalized RNA/DNA level with ligand (log10)” value in series [1] came to 1.937 ± 0.019. Besides, the “normalized RNA/DNA level without ligand (log10)” value in series [2] amounted to 1.95 ± 0.046.
For the variant UGCUUC, the “normalized RNA/DNA level with ligand (log10)” value in series [1] is 1.988 ± 0.0048. The “normalized RNA/DNA level without ligand (log10)” value in series [2] came out at 1.96 ± 0.045.
For UGCUUG, in that order: 1.923 ± 0.019 and 1.85 ± 0.091.
On to UGCUUU, for which, in series [1], the “normalized RNA/DNA level with ligand (log10)” value is 1.96 ± 0.064. For the same variant, in series [2], the “normalized RNA/DNA level without ligand (log10)” value turned out to be 1.94 ± 0.0096.
For CGGCGA, in that order: 1.95 ± 0.029 and 1.743 ± 0.017.
For CGGCGC, in that order: 2.005 ± 0.013 and 1.93 ± 0.064.
In the case of CGGCGU, the “normalized RNA/DNA level with ligand (log10)” value in series [1] is 1.929 ± 0.017. For the same variant, in series [2], the “normalized RNA/DNA level without ligand (log10)” value is 1.91 ± 0.06.
